Test results published in paper PMC5829251, “NAD^+ analog reveals PARP-1 substrate-blocking mechanism and allosteric communication from catalytic center to DNA-binding domains” (Nature Communications, 2018).

Target: PARP-1 WT (human) (UniProt P09874)
Experiment: fluorescence polarization
Details: 250 mM NaCl, FP affinity: 12 mM Hepes pH 8.0, 250 mM NaCl, 4% glycerol, 5.7 mM beta-mercaptoethanol, 0.05 mg/ml BSA, RT, 5 nM probe, FP competition: same but 60 mM KCl, 8 mM

Sequence of PARP-1 WT (human) (P09874 whole entry): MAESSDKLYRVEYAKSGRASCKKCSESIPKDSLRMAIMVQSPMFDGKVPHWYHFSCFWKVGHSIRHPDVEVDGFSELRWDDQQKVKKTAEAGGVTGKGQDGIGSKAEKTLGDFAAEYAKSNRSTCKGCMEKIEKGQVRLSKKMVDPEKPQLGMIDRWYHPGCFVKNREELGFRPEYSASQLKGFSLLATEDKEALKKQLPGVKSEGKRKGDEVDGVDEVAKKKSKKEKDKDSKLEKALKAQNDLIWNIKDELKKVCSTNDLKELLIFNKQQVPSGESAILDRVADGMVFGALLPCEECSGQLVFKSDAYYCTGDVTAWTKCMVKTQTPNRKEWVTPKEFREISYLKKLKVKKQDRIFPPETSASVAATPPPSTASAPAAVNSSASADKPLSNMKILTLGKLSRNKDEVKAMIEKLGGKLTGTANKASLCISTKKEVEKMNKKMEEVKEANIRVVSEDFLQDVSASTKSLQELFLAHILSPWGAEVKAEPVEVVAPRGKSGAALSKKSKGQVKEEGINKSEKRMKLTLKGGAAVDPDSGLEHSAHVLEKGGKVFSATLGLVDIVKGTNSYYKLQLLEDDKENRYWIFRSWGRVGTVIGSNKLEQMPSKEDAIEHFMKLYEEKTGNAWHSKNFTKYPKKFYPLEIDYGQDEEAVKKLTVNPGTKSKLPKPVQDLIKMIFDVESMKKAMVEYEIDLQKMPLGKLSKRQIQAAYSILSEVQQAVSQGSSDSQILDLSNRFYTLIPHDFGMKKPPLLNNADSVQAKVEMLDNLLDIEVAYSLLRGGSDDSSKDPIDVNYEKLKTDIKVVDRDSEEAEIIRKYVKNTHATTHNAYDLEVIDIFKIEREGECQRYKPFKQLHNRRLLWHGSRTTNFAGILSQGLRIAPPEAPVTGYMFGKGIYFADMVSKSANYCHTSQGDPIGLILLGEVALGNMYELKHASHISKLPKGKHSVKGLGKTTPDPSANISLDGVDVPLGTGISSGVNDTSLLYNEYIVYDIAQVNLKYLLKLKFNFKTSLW

GCTGAGCTTCTGGTGAAGCTCAGCTCGCGGCAGCTGGTGCTGCCGCGA [nick dumbbell DNA, FAM]
binding signal (fold higher affinity than without BAD) (100 uM BAD): 10
binding signal (100 uM benzamide, scale: fold): 1
